Results reported in the supplement of paper PMC9112550, “Optimization of the antimicrobial peptide Bac7 by deep mutational scanning” (BMC Biology, 2022).

The sequences below were run on Escherichia coli TOP10 (assay: shrunken log2 fold change of peptide-encoding DNA abundance (4.5 h post-induction vs induction); higher = less antimicrobial activity (less host growth inhibition)). Details: time post-induction: 4.5 h; library: site-saturation at positions 5, 18, 19, 20.
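Further: peptides expressed intracellularly from a pBAD plasmid library in pooled LB shake-flask culture, induced with 0.3% L-arabinose, DNA abundance read by NGS, three biological replicates, DESeq2 with apeglm shrinkage.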

| Sequence | shrunken log2 fold change |
| --- | --- |
| RRIRCRPPRLPRPRPRPKLTPRP | -0.223 |
| RRIRNRPPRLPRPRPRPCVCPRP | -0.00201 |
| RRIRIRPPRLPRPRPRPGHGPRP | -0.062 |
| RRIRRRPPRLPRPRPRPELYPRP | 0.247 |
| RRIRWRPPRLPRPRPRPYKMPRP | 0.0642 |
| RRIRCRPPRLPRPRPRPSVRPRP | -0.362 |
| RRIRCRPPRLPRPRPRPDDGPRP | -0.0952 |
| RRIRIRPPRLPRPRPRPCITPRP | -0.0326 |
| RRIRFRPPRLPRPRPRPYCNPRP | -1.06 |
| RRIRYRPPRLPRPRPRPRPPPRP | 1.01 |
| RRIRTRPPRLPRPRPRPPECPRP | 0.0838 |
| RRIRCRPPRLPRPRPRPVNHPRP | -0.444 |
| RRIRVRPPRLPRPRPRPKHGPRP | -0.0119 |
| RRIRRRPPRLPRPRPRPPYQPRP | 0.245 |
| RRIRARPPRLPRPRPRPNSFPRP | -0.232 |
| RRIRFRPPRLPRPRPRPALLPRP | -0.00442 |
| RRIRARPPRLPRPRPRPHYPPRP | -1.36 |
| RRIRTRPPRLPRPRPRPWMWPRP | 0.101 |
| RRIRHRPPRLPRPRPRPFTVPRP | -0.0532 |
| RRIRWRPPRLPRPRPRPDKAPRP | -0.00149 |
| RRIRTRPPRLPRPRPRPPGYPRP | 0.0573 |
| RRIRCRPPRLPRPRPRPNKSPRP | -0.584 |
| RRIRSRPPRLPRPRPRPVFFPRP | 0.142 |
| RRIRNRPPRLPRPRPRPHISPRP | -0.0617 |
| RRIRQRPPRLPRPRPRPNCCPRP | 0.0381 |

| Sequence | shrunken log2 fold change |
| --- | --- |
| RRIRGRPPRLPRPRPRPDMDPRP | 0.00342 |
| RRIRYRPPRLPRPRPRPMQTPRP | -0.0135 |
| RRIRHRPPRLPRPRPRPAPWPRP | 0.0941 |
| RRIRMRPPRLPRPRPRPKEIPRP | 0.38 |
| RRIRRRPPRLPRPRPRPRQEPRP | 0.123 |
| RRIRMRPPRLPRPRPRPGDHPRP | 0.147 |
| RRIRDRPPRLPRPRPRPNQYPRP | -0.428 |
| RRIRQRPPRLPRPRPRPNPYPRP | -0.0811 |
| RRIRARPPRLPRPRPRPTRYPRP | 0.356 |
| RRIRYRPPRLPRPRPRPQVFPRP | 0.0195 |
| RRIRTRPPRLPRPRPRPDGGPRP | -0.145 |
| RRIRNRPPRLPRPRPRPYLYPRP | -0.317 |
| RRIRWRPPRLPRPRPRPDNHPRP | -0.299 |
| RRIRDRPPRLPRPRPRPASIPRP | 0.0781 |
| RRIRQRPPRLPRPRPRPRQYPRP | -0.163 |
| RRIRSRPPRLPRPRPRPVCQPRP | -0.569 |
| RRIRRRPPRLPRPRPRPEVMPRP | 0.212 |
| RRIRVRPPRLPRPRPRPHSIPRP | -0.155 |
| RRIRFRPPRLPRPRPRPKQFPRP | 0.058 |
| RRIRDRPPRLPRPRPRPPHCPRP | 0.0674 |
| RRIRIRPPRLPRPRPRPRTAPRP | 0.436 |
| RRIRHRPPRLPRPRPRPRRHPRP | 0.153 |
| RRIRCRPPRLPRPRPRPHWPPRP | 0.149 |
| RRIRTRPPRLPRPRPRPRSCPRP | 0.423 |
| RRIRFRPPRLPRPRPRPYIGPRP | -1.25 |

| Sequence | shrunken log2 fold change |
| --- | --- |
| RRIRYRPPRLPRPRPRPRDFPRP | -0.161 |
| RRIRIRPPRLPRPRPRPICGPRP | -0.161 |
| RRIRDRPPRLPRPRPRPHHVPRP | -0.145 |
| RRIRARPPRLPRPRPRPFMGPRP | -0.255 |
| RRIRDRPPRLPRPRPRPYYAPRP | -0.201 |
| RRIRLRPPRLPRPRPRPYACPRP | -0.0291 |
| RRIRRRPPRLPRPRPRPFWFPRP | -0.138 |
| RRIRRRPPRLPRPRPRPRWDPRP | 0.457 |
| RRIRLRPPRLPRPRPRPQLQPRP | 0.037 |
| RRIRCRPPRLPRPRPRPWVQPRP | -0.391 |
| RRIRFRPPRLPRPRPRPNKDPRP | 0.539 |
| RRIRYRPPRLPRPRPRPNQNPRP | -0.967 |
| RRIRSRPPRLPRPRPRPWGTPRP | -0.222 |
| RRIRTRPPRLPRPRPRPTGLPRP | -0.0841 |
| RRIRMRPPRLPRPRPRPLGFPRP | 0.772 |
| RRIRSRPPRLPRPRPRPCLEPRP | -0.0107 |
| RRIRFRPPRLPRPRPRPPPRPRP | 1.84 |
| RRIRVRPPRLPRPRPRPDPMPRP | -0.0769 |
| RRIRHRPPRLPRPRPRPMNVPRP | -0.0594 |
| RRIRMRPPRLPRPRPRPVIRPRP | 0.00204 |
| RRIRERPPRLPRPRPRPSNLPRP | -0.302 |
| RRIRPRPPRLPRPRPRPFLGPRP | -0.0178 |
| RRIRVRPPRLPRPRPRPAWLPRP | 0.186 |
| RRIRTRPPRLPRPRPRPPWRPRP | 0.747 |
| RRIRGRPPRLPRPRPRPIKKPRP | 0.00565 |

| Sequence | shrunken log2 fold change |
| --- | --- |
| RRIRKRPPRLPRPRPRPRVEPRP | 0.144 |
| RRIRWRPPRLPRPRPRPVRQPRP | 0.161 |
| RRIRYRPPRLPRPRPRPHTLPRP | -0.959 |
| RRIRPRPPRLPRPRPRPYAKPRP | 0.258 |
| RRIRYRPPRLPRPRPRPRAQPRP | 0.174 |
| RRIRGRPPRLPRPRPRPQGMPRP | 0.0957 |
| RRIRCRPPRLPRPRPRPIQDPRP | -0.49 |
| RRIRIRPPRLPRPRPRPDINPRP | -0.0484 |
| RRIRPRPPRLPRPRPRPLDNPRP | -0.171 |
| RRIRLRPPRLPRPRPRPDLFPRP | -0.000844 |
| RRIRKRPPRLPRPRPRPWGWPRP | 0.691 |
| RRIRERPPRLPRPRPRPHARPRP | 0.198 |
| RRIRPRPPRLPRPRPRPWGCPRP | -0.0706 |
| RRIRARPPRLPRPRPRPPMNPRP | 0.134 |
| RRIRNRPPRLPRPRPRPAMNPRP | -0.000576 |
| RRIRNRPPRLPRPRPRPSGKPRP | 0.0521 |
| RRIRLRPPRLPRPRPRPYNRPRP | -0.113 |
| RRIRKRPPRLPRPRPRPFVWPRP | -0.0438 |
| RRIRERPPRLPRPRPRPCCGPRP | -0.18 |
| RRIRNRPPRLPRPRPRPVLKPRP | 0.0485 |
| RRIRWRPPRLPRPRPRPGTCPRP | 0.0934 |
| RRIRGRPPRLPRPRPRPHEMPRP | 0.143 |
| RRIRCRPPRLPRPRPRPQWKPRP | -0.0376 |
| RRIRERPPRLPRPRPRPGGQPRP | 0.171 |
| RRIRWRPPRLPRPRPRPGWMPRP | 0.366 |

| Sequence | shrunken log2 fold change |
| --- | --- |
| RRIRRRPPRLPRPRPRPVPKPRP | 0.234 |
| RRIRGRPPRLPRPRPRPLTAPRP | 0.998 |
| RRIRPRPPRLPRPRPRPDCYPRP | -0.0771 |
| RRIRIRPPRLPRPRPRPQHKPRP | -0.621 |
| RRIRKRPPRLPRPRPRPSVSPRP | 0.172 |
| RRIRPRPPRLPRPRPRPQGWPRP | 0.542 |
| RRIRGRPPRLPRPRPRPRPKPRP | 1.41 |
| RRIRERPPRLPRPRPRPAYWPRP | 0.000956 |
| RRIRFRPPRLPRPRPRPASVPRP | 0.344 |
| RRIRNRPPRLPRPRPRPKYWPRP | -0.387 |
| RRIRERPPRLPRPRPRPAPMPRP | 0.116 |
| RRIRCRPPRLPRPRPRPMVRPRP | 0.158 |
| RRIRHRPPRLPRPRPRPQHFPRP | 0.0728 |
| RRIRCRPPRLPRPRPRPWAQPRP | -0.211 |
| RRIRPRPPRLPRPRPRPDREPRP | 0.0682 |
| RRIRMRPPRLPRPRPRPCFWPRP | 0.237 |
| RRIRCRPPRLPRPRPRPMSKPRP | -0.5 |
| RRIRRRPPRLPRPRPRPRKHPRP | 0.535 |
| RRIRQRPPRLPRPRPRPVQIPRP | 0.0268 |
| RRIRRRPPRLPRPRPRPGDCPRP | 0.336 |
| RRIRCRPPRLPRPRPRPVTYPRP | 0.0559 |
| RRIRERPPRLPRPRPRPGPAPRP | 0.439 |
| RRIRFRPPRLPRPRPRPSHFPRP | -0.136 |
| RRIRRRPPRLPRPRPRPGVHPRP | -0.178 |
| RRIRQRPPRLPRPRPRPEDAPRP | -0.132 |

| Sequence | shrunken log2 fold change |
| --- | --- |
| RRIRSRPPRLPRPRPRPVCLPRP | 0.0459 |
| RRIRSRPPRLPRPRPRPHTQPRP | -0.433 |
| RRIRPRPPRLPRPRPRPMHSPRP | 0.355 |
| RRIRCRPPRLPRPRPRPFEHPRP | -0.792 |
| RRIRCRPPRLPRPRPRPLQFPRP | -0.0752 |
| RRIRQRPPRLPRPRPRPHKSPRP | -0.0741 |
| RRIRGRPPRLPRPRPRPDIEPRP | 0.735 |
| RRIRDRPPRLPRPRPRPMQPPRP | 0.0977 |
| RRIRDRPPRLPRPRPRPQMIPRP | -0.197 |
| RRIRVRPPRLPRPRPRPHRKPRP | 0.164 |
| RRIRHRPPRLPRPRPRPQATPRP | 0.00115 |
| RRIRRRPPRLPRPRPRPIQFPRP | 0.153 |
| RRIRKRPPRLPRPRPRPYCVPRP | -0.382 |
| RRIRKRPPRLPRPRPRPPWYPRP | 0.131 |
| RRIRCRPPRLPRPRPRPQALPRP | 0.0319 |
| RRIRGRPPRLPRPRPRPGAMPRP | 1.25 |
| RRIRTRPPRLPRPRPRPQWPPRP | 0.0505 |
| RRIRDRPPRLPRPRPRPASNPRP | -0.15 |
| RRIRVRPPRLPRPRPRPMLMPRP | 0.00342 |
| RRIRARPPRLPRPRPRPYMMPRP | -1.22 |
| RRIRYRPPRLPRPRPRPRVVPRP | -0.405 |
| RRIRWRPPRLPRPRPRPGGYPRP | 0.215 |
| RRIRGRPPRLPRPRPRPLWWPRP | 0.458 |
| RRIRLRPPRLPRPRPRPPVLPRP | 0.0296 |
| RRIRRRPPRLPRPRPRPTTKPRP | 0.0527 |
